Laboratory results: paper PMC4582189

Experiments:
[1] = target: T1, CD13 on the surface of mouse articular chondrocytes (mouse (endogenous in primary articular chondrocytes)) (UniProt P97449)
T1 sequence: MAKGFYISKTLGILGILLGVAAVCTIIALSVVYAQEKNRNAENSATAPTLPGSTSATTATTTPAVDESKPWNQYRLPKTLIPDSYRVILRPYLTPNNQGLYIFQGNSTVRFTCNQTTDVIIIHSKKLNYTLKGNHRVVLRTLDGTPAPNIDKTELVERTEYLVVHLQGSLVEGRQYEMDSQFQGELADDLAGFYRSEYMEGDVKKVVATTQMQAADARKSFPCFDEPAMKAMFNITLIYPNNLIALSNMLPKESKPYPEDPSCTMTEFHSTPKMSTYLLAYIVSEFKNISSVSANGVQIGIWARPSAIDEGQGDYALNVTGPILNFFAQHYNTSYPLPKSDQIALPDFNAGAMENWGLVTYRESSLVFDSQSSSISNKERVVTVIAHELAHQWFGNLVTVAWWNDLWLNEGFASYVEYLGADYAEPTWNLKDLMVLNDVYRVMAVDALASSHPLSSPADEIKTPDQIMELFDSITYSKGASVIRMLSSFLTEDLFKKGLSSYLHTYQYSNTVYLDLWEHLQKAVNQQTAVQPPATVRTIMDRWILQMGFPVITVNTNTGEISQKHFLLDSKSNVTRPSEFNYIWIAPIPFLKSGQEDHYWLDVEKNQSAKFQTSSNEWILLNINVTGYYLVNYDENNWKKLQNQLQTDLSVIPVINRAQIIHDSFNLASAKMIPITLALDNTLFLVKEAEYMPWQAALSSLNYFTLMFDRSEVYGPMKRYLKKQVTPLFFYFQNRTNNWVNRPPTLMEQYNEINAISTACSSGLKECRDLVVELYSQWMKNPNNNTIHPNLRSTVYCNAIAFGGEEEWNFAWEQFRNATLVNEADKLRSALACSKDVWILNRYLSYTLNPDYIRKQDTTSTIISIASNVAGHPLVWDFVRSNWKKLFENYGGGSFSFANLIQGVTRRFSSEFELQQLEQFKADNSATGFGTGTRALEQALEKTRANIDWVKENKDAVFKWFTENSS

[2] = target: Human recombinant CD13 (human) (UniProt P15144)
Chain of UniProt P15144 (P15144 whole entry): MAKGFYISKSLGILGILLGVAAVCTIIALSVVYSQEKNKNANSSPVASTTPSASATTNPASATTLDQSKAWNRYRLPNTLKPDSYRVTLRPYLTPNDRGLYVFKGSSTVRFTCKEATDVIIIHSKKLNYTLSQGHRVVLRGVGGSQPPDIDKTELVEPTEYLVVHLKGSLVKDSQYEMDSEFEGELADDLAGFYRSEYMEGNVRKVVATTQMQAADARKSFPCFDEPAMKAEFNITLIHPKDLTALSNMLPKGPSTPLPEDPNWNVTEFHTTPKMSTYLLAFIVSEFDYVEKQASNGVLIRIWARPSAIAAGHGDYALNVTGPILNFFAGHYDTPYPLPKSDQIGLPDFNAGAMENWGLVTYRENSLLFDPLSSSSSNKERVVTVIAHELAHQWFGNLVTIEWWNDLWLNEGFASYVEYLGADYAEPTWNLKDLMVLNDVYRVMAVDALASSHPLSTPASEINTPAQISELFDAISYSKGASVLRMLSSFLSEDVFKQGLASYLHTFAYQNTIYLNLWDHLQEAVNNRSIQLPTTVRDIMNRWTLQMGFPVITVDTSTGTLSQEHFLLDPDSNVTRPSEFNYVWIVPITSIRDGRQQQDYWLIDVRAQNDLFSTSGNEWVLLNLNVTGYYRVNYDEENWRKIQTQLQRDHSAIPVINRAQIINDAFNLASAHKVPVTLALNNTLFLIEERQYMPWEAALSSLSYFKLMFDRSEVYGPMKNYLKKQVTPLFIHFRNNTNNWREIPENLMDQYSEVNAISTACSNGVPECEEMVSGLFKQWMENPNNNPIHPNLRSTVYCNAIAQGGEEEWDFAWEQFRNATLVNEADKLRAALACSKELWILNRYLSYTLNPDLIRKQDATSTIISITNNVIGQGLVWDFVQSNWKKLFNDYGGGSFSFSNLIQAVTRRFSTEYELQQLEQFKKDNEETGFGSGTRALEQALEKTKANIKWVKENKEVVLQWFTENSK

[3] = target: T1, CD13 on the surface of mouse articular chondrocytes (mouse (endogenous in primary articular chondrocytes)); remark: listed apart in the source
[4] = target: Human recombinant CD13 (human) (UniProt P15144); assay: SPR; Biacore 3000; human recombinant CD13 amine-coupled to a CM5 chip (11,949 RU, 10 mM sodium acetate pH 5.0); analytes in HBS-EP (10 mM HEPES pH 7.4, 150 mM NaCl, 3 mM EDTA, 0.005% P20), 5 µl/min, 5 min injection, 8 min dissociation; 14-3-3ε 10 µM, antibodies 1 µg/ml; kinetics with 0, 5, 7.5, 10, 15, 20 µM 14-3-3ε; blank surface subtracted

decrease of 14-3-3ε (1 µg/ml)-induced MMP-13 mRNA expression (qRT-PCR) in murine chondrocytes by anti-CD13 blocking antibody AB108310, 1 and 5 µg/ml (47% to 88%) [1]: 88%
decrease of 14-3-3ε (1 µg/ml)-induced MMP-13 release (ELISA) in murine chondrocytes by anti-CD13 blocking antibody AB108310, 1 and 5 µg/ml (29% to 32%, P>0.05) [1]: 32%
inhibition of 14-3-3ε (1 µg/ml)-induced MMP-3 mRNA expression (qRT-PCR) in murine chondrocytes by anti-CD13 blocking antibody AB108310, 1 and 5 µg/ml (64% to 90%) [1]: 90%
inhibition of 14-3-3ε (1 µg/ml)-induced MMP-3 protein release (ELISA) in murine chondrocytes by anti-CD13 blocking antibody AB108310, 1 and 5 µg/ml (61% to 87%) [1]: 87%
decrease of 14-3-3ε-induced MMP-3 mRNA expression (qRT-PCR) in human osteoarthritis chondrocytes (endogenous human CD13) by anti-CD13 blocking antibody SJ1D1, 1 µg/ml [2]: 43%
decrease of 14-3-3ε-induced MMP-3 protein release (ELISA) in human osteoarthritis chondrocytes (endogenous human CD13) by anti-CD13 blocking antibody SJ1D1, 1 µg/ml [2]: 59%
decrease of 14-3-3ε (1 µg/ml)-induced MMP-13 mRNA synthesis (qRT-PCR) in mouse chondrocytes by the synthetic CD13 peptide EFNpYVW, 0.5 and 5 µg/ml (30% to 56%) [3]: 56%
inhibition of 14-3-3ε (1 µg/ml)-induced MMP-3 mRNA production (qRT-PCR) in mouse chondrocytes by the synthetic CD13 peptide EFNpYVW, 0.5 and 5 µg/ml (48% to 62%) [3]: 62%
Kd [4]: 2450 nM
response (resonance units) at 10 µM [4]: 78 RU
Substance: Recombinant human 14-3-3ε (from UniProt P62258 1-255) (natural protein)
